Test results from patent US20210054047A1, “NOVEL ANTICANCER FUSION PROTEIN AND USE THEREOF” (KOREA INSTITUTE OF SCIENCE AND TECHNOLOGY, priority 2018, published 2021).

Columns and labels:
XIAP = experiment: Western blot of HT29 lysates: XIAP; type: cell-based, human; conditions: HT29, 24 hours
Protocol: (§1) After incubating HT29 cells with 50 nM DOX-TTPNs, DOX-FTNs, free DOX, or buffer for 24 hours, cells were lysed with radioimmunoprecipitation assay (RIPA) buffer (Cell Signaling Technology) and the concentration of proteins was measured using a DC protein assay kit (Bio-Rad). Equal amounts of proteins (30 μg) were resolved by SDS-PAGE and transferred to nitrocellulose membranes. After blocking with 5% skim milk in Tris-buffered saline containing 0.1% Tween-20 (TBST), membranes were incubated first with anti-Cl-PARP, anti-Cl-caspase-6, anti-cFLIP, anti-Bcl-xL, anti-XIAP, anti-Cl-caspase-3, or anti-GAPDH primary antibody (Cell Signaling Technology), and then with anti-mouse or anti-rabbit secondary antibodies (Sigma-Aldrich), as appropriate. Immunoreactive proteins were visualized using enhanced chemiluminescence (ECL) chemical reagents (Bio-Rad) and ChemiDoc (Bio-Rad), and were analyzed using ImageJ software.

HT29 tumor [1] = experiment: Antitumor efficacy, HT29 xenograft; type: in vivo, mouse; conditions: i.v. five times every 2 days, DOX-TTPNs 30 mg/kg, DOX 0.4 mg/kg, DOX-FTNs 15 mg/kg, empty TTPNs 30 mg/kg
HT29 cells [2] = experiment: Cell viability, CCK-8 assay, HT29; type: cell-based, human; conditions: HT29, 250 nM (DOX 3.5 μg/ml), 24 hours
Protocol: (§2) HepG2, HT29, or MCF7 cells (1.5×10^4) were cultured in a 96-well plate for 1 day, after which DOX-TTPNs, DOX-FTNs, free DOX, empty TTPNs, or buffer was added to each well. After 24 hours, cell viability was measured using a CCK-8 assay (Dojindo Molecular Technologies) according to the manufacturer's instructions. For analysis of early apoptosis, HT29 cells in 6-18 well culture plate were treated with DOX-TTPNs, free DOX, empty TTPNs, or buffer for 24 hours. Thereafter, cells were incubated with Alexa Fluor 488-conjugated annexin V (Invitrogen) 20 for 15 minutes, then analyzed using an Accuri™ C6 flow cytometer (BD Biosciences) and FlowJo 21 v10 software.

HT29 tumor [3] = experiment: TUNEL analysis of HT29 tumor tissue; type: in vivo, mouse; conditions: HT29 tumor tissue at the end of the study
HT29 cells [4] = experiment: Annexin V early apoptosis flow cytometry, HT29; type: cell-based, human; conditions: HT29, low concentrations, 24 hours
Protocol: as §2

PARP = experiment: Western blot of HT29 lysates: PARP; type: cell-based, human; conditions: HT29, 24 hours
Protocol: as §1

[5] = mice (Chatterjee et al.); cited from earlier work
[6] = system: cleaved form of caspase-3; experiment: Western blot of HT29 lysates: cleaved caspase-3; type: cell-based, human; conditions: HT29, 50 nM, 24 hours
Protocol: as §1

DR5 [7] = experiment: Western blot time course of DR5 levels in HT29; type: cell-based, human; conditions: HT29, 4, 12 and 24 hours
DR5 [8] = target: T1, DR5 (Homo sapiens, UniProt O14763); experiment: SPR binding to immobilized DR5-Fc
T1 construct: purchased R&D systems 631-T2-100
Protocol: (§3) Binding experiments of TTPN and mTRAIL to TRAIL receptors DR4 and DR5 were analyzed at 25° C. using a surface plasmon resonance apparatus (SR7500 DC, Reichert Inc., NY, USA). DR4 and DR5-fc chimeric proteins (R&D systems 347-DR-100, 631-T2-100) were immobilized on the surface of the Planar Protein A sensor chip (Reichert, 13206069) and the receptors were coated at a level of 300 to 500 resonance units. SPR kinetic titrations were performed by adding 250 μl of TTPN and mTRAIL with different concentrations in the range of 1.56 to 400 nM and 0.1 to 25.6 μM, respectively, increasing by four times. Each analyte was run at 50 μL/min using running and sample buffer (0.5 M Tris-HCl (pH 7.4), 150 mM NaCl, 0.005% Tween 20), and binding of the ligand to the receptor was performed and monitored in real time. For titration sensorgrams, a simple 1:1 Langmuir interaction model (A+B↔AB) was applied using the data analysis program Scrubber 2.0 (BioLogic Software, Australia, and KaleidaGraph Software, Australia) and CLAMP software.
(§4) The affinity KD was determined from the formula of KD=kd/ka. Results are based on representative sensorgrams obtained from saturation binding reactions averaged over at least three independent runs of SPR measurements (FIG. 31).

HepG2 cells [9] = experiment: Annexin V/PI flow cytometry of apoptosis, HepG2; type: cell-based, human; conditions: for surviving tumor cells (Annexin V/PI double negative): 24 hours
Protocol: FIG. 19 is a series of histograms representing flow cytometry analysis of TRAIL-mediated apoptosis of HepG2 cells as an analysis of in vitro TTPN-mediated apoptosis on TRAIL-sensitive-HepG2 cells. Cells were incubated for 24 hours in the presence of different concentrations of mTRAIL and TTPN and analyzed by Annexin V/PI double staining.
In addition, to investigate whether apoptosis induced by TTPN is induced by the pro-apoptosis pathway of tumor cells, fluorescence-activated cell sorting (FACS) using double staining of Annexin V/propidium iodide (PI) was performed. […] (FIG. 21).

HepG2 tumor [10] = experiment: TUNEL analysis of HepG2 tumor tissue; type: in vivo, mouse; conditions: 15th day after first injection
Text: In the evaluation of the anti-tumor effect of the present invention, BALB/c nude male mice (6-7 weeks old) were used as an animal model. Particularly, HT29 cells (5×10^6) and HepG2 cells (5×10^6) were subcutaneously inoculated into the left dorsal flank of BALB/c nude mice, respectively. After a volume of tumors reached ˜80-100 mm^3, mice were randomly divided into the 14 following five treatment groups (6 mice/group); DOX-TTPNs, DOX-FTNs, free DOX, empty TTPNs, and buffer. Mice were intravenously injected five times, once every 2 days, and volume of tumors was determined as 1/2(Length×Width^2). Apoptotic cell death in tumor tissues was analyzed using TUNEL staining (In situ Cell Death Detection kit; Roche), and cells were stained with DAPI (4′,6-diamidino-2-phenylindole), as previously described (Kih et al., Biomaterials 180: 67-77, 2018). Apoptotic cells were visualized under a Nikon Eclipse Ti microscope (Nikon) and quantified as the number of TUNEL-positive cells per total number of cells using ImageJ software. […]
(§5) In addition, to investigate whether tumor growth inhibition by TTPN is induced by apoptosis-inducing activity on tumor cells, tumor tissues from the treated mice were analyzed. On the 15th day after the first injection, mice were euthanized, and apoptosis of tumor tissues was analyzed using terminal deoxynucleotidyl transferase dUTP nick end labeling (TUNEL) staining.

DR4 = target: T2, DR4 (Homo sapiens, UniProt O00220); experiment: SPR binding to immobilized DR4-Fc; conditions: DR4-Fc immobilized, 25° C.
T2 construct: purchased R&D systems 347-DR-100
Protocol: as §3, §4

HepG2 cells [11] = experiment: Cell viability, CCK-8 assay, HepG2; type: cell-based, human; conditions: HepG2
Protocol: After culturing for 24 hours, cell viability was measured using a cell counting kit (CCK)-8 assay (Dojindo Molecular Technologies, Gaithersburg, Md.). The plate was then read with an absorbance microplate reader (Spectramax 340, Molecular Devices Corporation) at a wavelength of 450 nm and 50% effective by regression analysis using SigmaPlot software (Systat Software, Inc., San Jose, Calif.). The concentration value was calculated.

[12] = target: TRAIL R1 (death receptor 4, DR4) on the surface of tumor cells (human, UniProt O00220 24-468); experiment: cell-based or functional assay
[13] = target: TRAIL R2 (death receptor 5, DR5) on the surface of tumor cells (human, UniProt O14763 56-440); experiment: cell-based or functional assay
[14] = In vitro stability (soluble protein in buffer over time); type: physicochemical
Protocol: The stability of TTPN, DOX-TTPN and mTRAIL was investigated by measuring changes of concentration in a suitable buffer solution. […] At predetermined times, aggregated proteins were collected at 13,000 rpm for 10 minutes, and the concentration of soluble DOX-TTPN and TTPN in the supernatant was measured using absorbance in UV280.

HepG2 tumor [15] = experiment: Antitumor efficacy, HepG2 xenograft; type: in vivo, mouse; conditions: i.v. every 2 days, TTPN 23 mg/kg, mTRAIL 12 mg/kg
Text: In the evaluation of the anti-tumor effect of the present invention, BALB/c nude male mice (6-7 weeks old) were used as an animal model. Particularly, HT29 cells (5×10^6) and HepG2 cells (5×10^6) were subcutaneously inoculated into the left dorsal flank of BALB/c nude mice, respectively. After a volume of tumors reached ˜80-100 mm^3, mice were randomly divided into the 14 following five treatment groups (6 mice/group); DOX-TTPNs, DOX-FTNs, free DOX, empty TTPNs, and buffer. Mice were intravenously injected five times, once every 2 days, and volume of tumors was determined as 1/2(Length×Width^2). Apoptotic cell death in tumor tissues was analyzed using TUNEL staining (In situ Cell Death Detection kit; Roche), and cells were stained with DAPI (4′,6-diamidino-2-phenylindole), as previously described (Kih et al., Biomaterials 180: 67-77, 2018). Apoptotic cells were visualized under a Nikon Eclipse Ti microscope (Nikon) and quantified as the number of TUNEL-positive cells per total number of cells using ImageJ software. After 21 days from injecting tumor cells, tumor tissues were excised from the experimental mice, and cryo-sections (3.5 μm) were fixed with 10% neutral buffered formalin and paraffin-embedded tissue blocks.
as §5

[16] = within 21 days (Kih et al.); cited from earlier work
[17] = target: T3, DR4-Fc chimeric protein (R&D systems 347-DR-100) (UniProt O00220 24-239); experiment: SPR, DR4-Fc captured on Protein A chip, 25° C., 1:1 Langmuir model
T3 construct: Bought (R&D systems 347-DR-100); Captured on a Protein A sensor chip; also called TRAIL R1; death receptor 4; Fc part of the bought chimera not given
Protocol: DR4 and DR5-fc chimeric proteins (R&D systems 347-DR-100, 631-T2-100) were immobilized on the surface of the Planar Protein A sensor chip (Reichert, 13206069) and the receptors were coated at a level of 300 to 500 resonance units. […] Each analyte was run at 50 μL/min using running and sample buffer (0.5 M Tris-HCl (pH 7.4), 150 mM NaCl, 0.005% Tween 20), and binding of the ligand to the receptor was performed and monitored in real time. For titration sensorgrams, a simple 1:1 Langmuir interaction model (A+B↔AB) was applied using the data analysis program Scrubber 2.0 (BioLogic Software, Australia, and KaleidaGraph Software, Australia) and CLAMP software.
The affinity KD was determined from the formula of KD=kd/ka.

## COc1cccc2c1C(=O)c1c(O)c3c(c(O)c1C2=O)C[C@@](O)(C(=O)CO)C[C@@H]3O[C@H]1C[C@H](N)[C@H](O)[C@H](C)O1 [free DOX, doxorubicin, reference compound]
XIAP
  decrease in XIAP levels compared with buffer treatment: 34 fold
HT29 tumor [1]
  decrease of tumor volumes: no significant tumor-inhibition effect
HT29 cells [2]
  cell death compared with controls: 36%
HT29 tumor [3]
  TUNEL-positive tumor cells: 0.07%
HT29 cells [4]
  induction of early apoptosis: ineffective in inducing apoptosis
PARP
  increase in PARP relative to buffer-treated controls (defined as 1): 811 fold
[5]
  dose at which side effects can be exhibited: greater than 1 mg/kg
[6]
  cleaved caspase-3 (and PARP) expression: little change
DR5 [7]
  DR5 expression levels over time: substantial increase in DR5 expression at 4 hours

B1: monomeric TRAIL (mTRAIL) extracellular domain (ligand)
chain: MTSEETISTVQEKQQNISPLVRERGPQRVAAHITGTRGRSNTLSSPNSKNEKALGRKINSWESSRSGHSFLSNLHLRNGELVIHEKGFYYIYSQTYFRFQEEIKENTKNDKQMVQYIYKYTSYPDPILLMKSARNSCWSKDAEYGLYSIYQGGIFELKENDRIFVSVTNEHLIDMDHEASFFGAFLVG
notes: Expressed in E. coli from pET28a-mTRAIL and purified on Ni-NTA; a vector tag is not spelled out
DR5 [8]; 25° C.
  ka: 1.48 (±0.12) · 10^3 M^−1 · S^−1
  kd: 3.87 (±1.13) · 10^−5 s^−1
DR5 [8]; KD=kd/ka
  Kd: 25.4 nM
HepG2 cells [9]; HepG2, 0.4 nM
  surviving tumor cells (Annexin V/PI double negative): 94.3%
HepG2 cells [9]; HepG2, 100 nM
  surviving tumor cells (Annexin V/PI double negative): 82.9%
HepG2 cells [9]; HepG2, 24 hours (FIG. 20)
  concentration at which Annexin V-positive cells were detected: 25 nM
HepG2 tumor [10]
  TUNEL-positive tumor cells: 18.9%
DR4
  ka: 8.68 (±7.12) · 10^2 M^−1 · S^−1
  kd: 5.27 (±2.14) · 10^−5 s^−1
HepG2 cells [11]
  IC50 relative to TTPN: 30 times
[12]
  IC50, cell viability of HepG2 cells (CCK-8, 24 hours): 405 nM
[13]
  IC50, cell viability of HepG2 cells (CCK-8, 24 hours): 405 nM
[14]; 15 mg/mL in PBS buffer for 24 hours (FIG. 15)
  stability in solution: precipitated and aggregated rapidly
[14]; within 2 days, 10 mg/mL (FIG. 16)
  amount in the soluble form, of the initial concentration: 57%
HepG2 tumor [15]
  inhibition of tumor volume: 25.98%
[16]
  fraction showing rapid aggregation: ~50%
[17]
  Kd: 247 nM
  koff: 5.27e-05 s⁻¹
  kon: 868 M⁻¹ s⁻¹
